A short description of this data set: label from the status in PepcDB records.

As for “MKKKNKLLFILGIIGPGLITVNAGNDAGGIATYATVGASYGYKMLWGLLLITFSLAIIQEMNARMAVVTGKGLSDLIRENYGVKWSLFAMCILFIANFGVCVGDFAGIAASLELFGISKYITVPIMAFLVWFVITKGSYEKTEKVFLAFTFVFFTYIITCIKVHPNWNVVMKATITPSLSFTKGYVLTLIGMIGTTITPYMQFYLQSSVVDKGLSVKEYKYEKIDVYLGAIWGDLVSFFIIVCTAVTLYKAGIKIDSAEQAAMALKPLAGNYATILFAAGLFGASVLATMVIPLSTTYAICEAFGFESGLDNSFSEAKTFYGIFTFMILFSAALVLVPKLSLVGIMLITQQIAGILSPVILIFMVLLINNKDIMGKYINNKLQNVIVYLTVAFIIILSLILFVSPIIDKLM”, the protein production result is on record as “failed”.
For the sequence “MKKKYFLCVFAVILFFTGFLFGNSPVNAAETDTSNVTYNYIDISTLTETQKNSIIKGNPNETLTNDYENYSFVYQKNTSEPTTNTDNTSDNNKNQNGTLLKAGDVGPNSYLIILGFILFGSGIGLLTLKKRHARQLLVFLVVLGGSSLLVGSIVQATENSNLKTQESQTVAKGTKETKQPESMEGYTYVGYIHTSKNNTPPVVEKGTVTVNYQDEQGNSLATSETLEGDIDQPYQTATKNIEGYQLKEVNGNTTGTFTEKAQVVTYVYQKVPVATVTVKYLDQDGNKIHDPQTISGNIGEPYDASTDKYKLRIEGYTLDTTKLPNNANGTFTNQAIEVTYIYTKEAQDVKITIKFVDSNGDPFVLTDLTTYKNGDLVPIYPNLDQYHMRLNYNQEIYNQGEAVPDIVIPAKEGETYSLPERMTFNILDDQGKQIPYVISQNADLSSTGIERWENYLSIPTNREGTLTSEDVVVTYQILVYGVMIPEP”, the protein production result is recorded as “failed”.
With “MKKLFMSAVALLFAGALWAQENPLWMRHCAISPDGTTIAFTYKGDIFTVPVSGGKATQITTNPAFDTTPIWSPDSKQIAFASDRMGSMDVFIVSKDGGEPRRLTTFSGGETPVAFTDAGHILFTADIMPSTEDAGFPSNGQFQQIYQIPVSGGRPVMFSSMPMECISINKEGTILYQDKKGYEDYWRKHQKSPIARDIWMLRPGQTPRYEKQTTFIGEDREPVWAPDGKSFYYLSEENGTFNVYQRTPGSDTSKQVTHHKQHPVRFLSMASNGNLCYGFDGEIYTLAPGGKPQKVSVKILSDRNDKDLIRQIKTSGATEMAVSPDGKEVAFILRGDVYVTSVEYKTTKQVTNTPCQERGIDFAPDGRTLVYASERGGLWQLYTSTIVRKDEKQFTYATELKEERLTNSDIASFNPKYSPDGKEIAFLENRTAIRVINLKTKKVRTVMDAQYQYSYSDGDQWFEWSPDSKWILSEFIGIGGWNNKDIVLLNADGKGEMHNLTESGYSDGNAKWVLGGKAMVWFSDRAGYRSHGSWGAQYDAYIMFFDVDAYDRFRMNKEDLALLEEAEKAEKAEKEKAEKKKKENKKDDKKKDAKEKNKKDGDEEKKEEVKPLKFDLDNRFDRIVRLTVNSSFMGDAVLTPKGDKLYYLAAFESGYDLWEHDLKENSTKILLKGVGGGSLLPDKKGENIFMCTGGGMKKIEIAGSKTTPIAFESFFDYQPGGERAYIFDHVWQQVDDKFYVKDLQGVDWPLYKKSYEKFLPYINNNYDFAELLSEMLGELNASHTGARYSGAGGALATAALGVFYDDTYNGDGLKIKEIIEQGPFTLKKTDVKPGCIIEKVDGTLIKKGEDYFPLFEGKVGRKVLLSVYDPATKKRFEETVKAISYGAQRELLYKRWVERNRKKVEELSGGRLGYVHIKGMDSQSFRKMYSELLGRYRNKEAVVVDVRHNGGGWLHDDVVTLLSGKEYQRFVPRGQYIGSDPFNKWLKPSCMLVCEDNYSNAHGTPYVYKTLGIGKLVGTPVAGTMTAVWWERQIDPSLVFGIPQVGCMDMQGNYLENHTLEPDVLIYNEPAASLKGEDAQLKAAVDCLLKELPKK” the entry was “failed”.
Regarding “MKKLIIAALGLTLILSGCAPKLDSNDKVVQKDDKKAETGIMTKNQISSNYYKTVLPYKASKSRGLVVSNIYSRYDINELESGLMRVSQNKYSPDNYLFQEGQYLDKETLEKWLDRKSEKNPNGLNPESNGDGKDRKPIYLAHILEQDYLKQTDKDTVALGGISIALAMNSVDYYQKEQYGDTFEQEISDSDLLAQGKEMSGTVLNRIRQTKGLENVPVTIAIYKQGPRDAVAPGNFLTYATANGDSLSSWKDVEEKNYVLPSTESAKDHKTDNDNFLNFKKAIEDYYPNFTGVVGRARYEDGQLAELSIDIPLQFYGQAEIIGFTQYVTDLVGQHIPKTADLQVNISTSDGPAALITRKANEDAATAHIYD”, the protein production result is listed as “failed”.
For the sequence “MKKLLRNLFGSGREEEKRSASDAMSGREQIVTNSEKSNLSTDPDHVNRQADTLKFDAIRAMNMGELVFATEALRKAMELRPEFETRYYLTEALLRRHLTEEALAQMNLLLEEVPMHTATLLNRAKLRLEQNDPSRALEDCGTGIESTSELEEQALFLYYGASAMKDMKNLKDALCLLKQAIEKNDAFIPARLLRARILIDLERYEEATQDLDWVAASDPEEEQVPMLRARLFMLEGKQQNAIQAYEELLSLDPFNEEGHCGIATLMIKEGRSAEAETFLREAIEEMPVQRNLILMLVEILENKGQTQEAAEWRAKLPEAEVESEAVNFNDLYKGNLY”, the protein production entry is listed as “failed”.
As for “MKKMAAAESMEAEICINREIPPGLFPAVKGTDDLMAEGDIMSLLESIKKTEGGSGEVSVEDKMDEIFAKLEKSQVLLIQGDTGCGKTTKIPKYLLRKYGKIVCSQPRRIAAVSIAKKVAVDMKGKIGEDVGYSIRFDDMSSGRTRLKYVTDGVLLREIKNDKHLKKYDVVIIDEAHERSVNIDILLGYLKSILSERKDLRVVIMSATLNSEKFASFFRCQTVEIRHRMFPLEIFFLKKSDVADYVDEAMKTVVQIHRGEESGDILVFLTGRDEINSGREILMEVLGNDAEVCCIYSTLSPEEQEAVFRKTKKRKIVLATNIAETSITIEGVRYVVDSGRAKQMRYSASFGMDILEVVWISKAQAKQRAGRAGRTQAGKVFRMYSKEEYQKMDDNTTPEIFCCNLGKIVLELKSIGVDDIVNFNLIDKPDASNVKKALEMLYYLRAIGGDGKITSIGVKASTIPLDPELAVSLIVSSELGCLEDVSIIAAMLSVGNVWLDVPRYSQSYKAFLGARAAHFDKRGDHFLLLKIYRRWEKTGFKISHLKRWFLNVKTMLQTVKIKKQLCSMFRSPCKSDESGILPSLCAGYFMNVAKLVGESYVSIFNDTPCFIHYTSCMSRQNAKYILYHTLCRTGKEYARYCVGVTLEDLLKGANHMFAKVRKTEK”, the entry is “failed”; as for “MKKMLKVMLATLVLGWAVMAHAEDPHVEYTDAIGKGDLKVVKQYFNNPYKVDELFFAWSGLEIAANKGQLEMVKFFVENGADVNYKHPITKMTALHLAAYQGNKDVVKYLIDHGADVNAKLRGNVSILRALRDEGRTDMVDFLIAAGAKDDGCQEKKCY”, “failed”.
As for “MKKMLPESKVESIRKEGFLNRAVEAYRFFYPTVSNVSNFKALHDLGITENHDFIIQLTTPDLNVLTQNSDTPYCLGTGNTENGPVVIELPLGAIVGVADDINFKFITNMGLTGDEEGKGAKYLYLPPNYDGDIPEGYIVRKPSSFRFLICLRAMVHQASDYEKAFELLKTVKFYPLKEAKNNPTSTFHDFSHRKAISTPYYVEGKFDYWEVIKWALDNDETDPEYYQMYGLLKAIGLAPNKEFNPDSDTKALLIEAAEKADKMMFVNSFNTDDPAAIVWPGKNWEWAVYGENNDFYEKTYLNLPVRERWFYQATLETHMMFMHKVGFGSVYMLGVKDKEGNYLDGGKSYTLKVPTPVPTSIFWSVTVYEMDTRSEIVTEQFMPALNSIKDTFEADADGNTTLYFGPNPPEDESLPWIQTVPDANWFTYFRIYGPTEPAFDNSWQLYDFEEVK”, the entry is “failed”; as for “MKKNHVVIGVIIVAALALLFTLSIQIARLILGDGPMVSSGEGVGYVEVKGPILESEEIVKQLSEMRKKTNVKAVVLRIESPGGVIGPSQEIYEAVKKLAKTKKVVVSMGSVAASGGYHIAIPAAVIYANPGTITGSIGVLMKLANVEGLMDKVGMKAFTLKSGKFKDAGSPVRALTDEDRALLQGVIDNLHTQFVKAVAEARKLPVEEVRRLADGRVYTGEQAVSLKLVDRLGTLEDAVEEAGRLAGIKGEPTLLMPPKKRKHLRDYLLEEASGFFREIVRREGGFSVNYELDPAVGNGGRLEHHHHHH”, “not failed”; as for “MKKNLLYLSCALMCMLGFLSSCKDDEKEIPPVVEDVVAQYTGDKVKVTLGGEAVSGDAQIDLVQQDDKSLTIKLLNIIPDVKEFSIPNAEFEATTRSAYISKLSGKVSNAVVGYDVTFEGVVDEGVLTASITATEIKGDSINAKKAGLTGKTFKGKMTINVSNIPTPIEMEQRVYTSVVSKDTSAIKLKINDFAFQGLKLGDISLDTVAVRHRGEQDGKPIYGFKTKSQEMTLEAVGKVLIDANGTIIGEKMELSLNVNAVTAGLTVGVDFSGNIVEESTDTKATITVTGDAVAEGVTVSGNTYTFKVWESTPDDQLVFIPKIEIPATAVLDSIIIYDNRNKKVSAVEPNTAIDFSQLKENYYVGYHVTPEDIRYPSKKMLKMVRIAELNPVYDMATWVADGDFEKPNGLTTSNLAAAFFPMFGIDVPTPVVKASDNAAEITTSRTVSATLPSTLVPGVTAGTMFLGEFKVDITNTLKSTHFGVPYRVKPVNFKITYKYTPGTTFYKTVVKNNANDTEVVPNEKDECSINAYLYEVDSYAETLDGTNINTSNKVIMKAVLEDGSAKADYVTLTIPFKETGNGSFDPTKKKYKLAIVCSSSKKGDQFMGADGSKLWVKYLEVTR”, “failed”.
As for “MKKPVYMKGGLHWLRNDGAIVAFNPETEKARLISIRFPKELCSKTLFTAADNNLILISATEEVFYVYAVENILTDPKWVVLKQIRNGVLDEKMLYSWYPEAYDGKCLMLREILKKDHYKQVLHGYDLRANKWEVIGSIPGWYTSALDFYQFTPSLSSVIGPDAKEEEEILACDHKKISSINSIIRMLDGISS”, the entry is “failed”; as for “MKKRFCFVIITLLLIFILGSCNKVTSIRRLQELEEGVSNPNTEAELKDAIRKYEKRVDDIMIAEERIGIWYKILGSRYMDQKMYKKALKAFQSALEYYPENQNLFYQAGLAASLTAKNSLDFELTGTDIEKKRYFDLAVSAYKRALEIDPKHAKAVYALSVLYIFELNRPTEAIPILEKITEWEKKPIDHLFLLGAAYYMTGENEKAIAVYERIIEISSSAEKKAKAESNIREIRSSGGR”, “failed”; as for “MKKRKLLAVTLLSTILLNSAVPLVVADTSLRNNTSSTDQPTTADTATDAESETAKKDKKSKETASQHDTQKDHKPSHTHPTPPSNDTKQTDQASSEATDKPNKDKNDTKQPDSSDQSTSSPKDQSSQKESQNKDGRPTPSPDQQKDPTPDKTPEKSADKIPEKATEKTPEPNRDAPKPIQPPLAAAAPVFIPWRESDKDLSKLKPSSRSSAAYVRHWTGDSAYTHNLLSRRYGITAEQLDGFLNSLGIHYDKERLNGKRLLEWEKLTGLDVRAIVAIAMAESSLGTQGVAKEKGANMFGYGAFDFNPNNAKKYSDEVAIRHMVEDTIIANKNQTFERQDLKAKKWSLGQLDTLIDGGVYFTDTSGSGQRRADIMTKLDQWIDDHGSTPEIPEHLKITSGTQFSEVPVGYKRSQPQNVLTYKSETYSFGQCTWYAYNRVKELGYQVDRYMGNGGDWQRKPGFVTTHKPKVGYVVSFAPGQAGADATYGHVAVVEQIKEDGSILISESNVMGLGTISYRTFTAEQASLLTYVVGDKLPRP”, “failed”.
With “MKKRLLKSFSFSYNSQDENRRLLERLMQYKSKDADKLNEENESIIRKRSAKLKRDLEDAVREPSSSSNAASSPGAASLQRNSSPAQFVGGLIGDEDFDEAAINGAMEAIGLDDNEYISARFTAGEIAENSRASIDTLKATGYLGQANPTKILMKFEAHENESHAVRWSPVERMVATGGADRKVKLWDIGKNSTEPRAVLSGSSAGINSVDFDSTGAYILGTSNDYGARVWTVMDNRLRHTLTGHSGKVMAAKYVQEPIKVVTGSHDRTLKIWDLRSIACIETKFAGSSCNDLVTTDSLGSTIISGHYDKKIRFWDIRTEKQADDVLMPAKITSLDLSKDCNYLICSVRDDTIKLLDLRKNQVISTFTNEHFKISCDFARASFNSSGLKIACGSADGAIYIWNVNGFLEATLKGHSTAVNAVSWSPNNNMLASVGKNKRCTIYSES”, the protein production entry is reported as “failed”.
